# Experimental data as given in publication PMC4282956 (Journal of immunology (Baltimore, Md. : 1950), 2014).
# B1: Soluble KIR3DL1*001 (receptor)
# chain: HMGGQDKPFLSAWPSAVVPRGGHVTLRCHYRHRFNNFMLYKEDRIHIPIFHGRIFQESFNMSPVTTAHAGNYTCRGSHPHSPTGWSAPSNPVVIMVTGNHRKPSLLAHPGPLVKSGERVILQCWSDIMFEHFFLHKEGISKDPSRLVGQIHDGVSKANFSIGPMMLALAGTYRCYGSVTHTPYQLSAPSDPLDIVVTGPYEKPSLSAQPGPKVQAGESVTLSCSSRSSYDMYHLSREGGAHERRLPAVRKVNRTFQADFPLGPATHGGTYRCFGSFRHSPYEWSDPSDPLLVSVTGNPS
# Biological target: HLA-B*57:01.L82R/LF9 (human | )
# Experiment: SPR
binder,measurement,value
B1,Kd,35.5 ± 8.34 µM
